PMC3828522

Columns and labels:
Pho full-length = Pho full-length (Drosophila melanogaster, UniProt Q8ST83 1-520); experiment: EMSA
Sfmbt 4MBT wild type = molecular target: T1, Sfmbt 4MBT wild type (Drosophila melanogaster, UniProt Q9VK33 531-980); experiment: EMSA
T1 sequence: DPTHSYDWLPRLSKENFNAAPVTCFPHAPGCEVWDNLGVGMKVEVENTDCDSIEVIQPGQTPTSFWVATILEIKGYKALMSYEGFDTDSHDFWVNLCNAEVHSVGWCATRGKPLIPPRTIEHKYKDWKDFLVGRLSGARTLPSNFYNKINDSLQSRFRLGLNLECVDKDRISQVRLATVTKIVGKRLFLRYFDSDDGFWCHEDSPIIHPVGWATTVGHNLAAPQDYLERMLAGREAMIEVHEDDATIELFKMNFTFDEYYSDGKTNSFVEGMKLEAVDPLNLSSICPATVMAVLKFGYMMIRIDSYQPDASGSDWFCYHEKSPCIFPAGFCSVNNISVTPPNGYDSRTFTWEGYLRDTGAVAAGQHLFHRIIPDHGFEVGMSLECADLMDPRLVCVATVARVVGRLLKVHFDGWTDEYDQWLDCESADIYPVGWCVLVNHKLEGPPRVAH

[1] = molecular target: Pho full-length;Sfmbt 4MBT wild type (Drosophila melanogaster;Drosophila …, UniProt Q8ST83;Q9VK33 1-520;531-980, |); experiment: EMSA supershift
Sequence of Pho full-length;Sfmbt 4MBT wild type (Q8ST83 whole entry, one chain of several): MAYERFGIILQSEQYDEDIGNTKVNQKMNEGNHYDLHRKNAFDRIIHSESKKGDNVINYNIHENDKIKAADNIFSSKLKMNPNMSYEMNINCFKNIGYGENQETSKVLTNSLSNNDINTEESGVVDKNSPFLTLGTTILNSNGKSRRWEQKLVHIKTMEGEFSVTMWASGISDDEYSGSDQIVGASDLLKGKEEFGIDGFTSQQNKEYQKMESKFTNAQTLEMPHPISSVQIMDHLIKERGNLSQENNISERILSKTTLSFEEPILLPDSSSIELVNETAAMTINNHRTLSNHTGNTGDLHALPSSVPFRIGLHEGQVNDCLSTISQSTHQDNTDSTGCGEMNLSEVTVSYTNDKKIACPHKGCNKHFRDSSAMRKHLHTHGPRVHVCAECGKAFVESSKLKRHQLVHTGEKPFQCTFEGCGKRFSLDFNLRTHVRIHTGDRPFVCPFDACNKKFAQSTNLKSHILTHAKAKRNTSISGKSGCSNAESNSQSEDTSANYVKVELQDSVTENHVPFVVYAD

Sequence of Pho full-length (Q8ST83 whole entry): as the sequence (Q8ST83 whole entry, one chain of several) above

B1: Pho DNA-binding site probe (dsDNA)
DNA 1: CTCCGTCGCCATAACTGTCG
DNA 2: CGACAGTTATGGCGACGGAG
B1: binds (Pho full-length); no binding (Sfmbt 4MBT wild type); binds [1].
